Biological target: the molecule itself
Experiment: SEC-MALS; Superdex 200 10/300; 500 ul of 2 mg/ml protein loaded, 0.5 ml/min; purification buffer of full-length TgLaforin (50 mM Hepes, 100 mM NaCl, 15 mM imidazole, 2 mM DTT, pH 8.0)

B1: TgLaforin (Toxoplasma gondii laforin, glucan phosphatase), full length (enzyme, UniProt S8F2K7 1-523, looked up)
chain: MRVRFSVTAFVPPNAQLGVVGSAPFLGEWKLEHCVPLMPYSAPHPQGLEPSLWFRDIDLDPASCPNDTNDVHSTAAVSASCSADRRRCDLSRQSPHCFPSARSASPYMVEVSRGDCPFAVELMSTSQHVLSEFSKHNSPVYSAGEQRFRRSLPSSASFSSCTSSGSAVAATKCVWDAAAYRVATRAPEVQAVLESHPLRHCAFEYKFVLWYPPNGEIAVPYVPTTAGEEVPITYAGDSEVLNEESEGGARRRSWRKWLFPPSPSRCPAPPGPSESIVWEGFGPDSNRKFCFDPFDVVVDVNELGDLECLYICRIAHFRDPRAGGVGEYDLTTRFYNSVKSECRMHYSTIFPRFFVGSCPRQLKHIRHLKEELKVTCVVNLQTEQDLCNNYPDPIASSRSAEAVSQLYDGSGLRYVWLPTADMCDSARKIAVANAAFLLLGLFQSGHSVYMHCNAGVGRSVAAACAFLCFAVGLDLRKVNFLICARRPVAYWDEKAMKYGIGDYQAKFGHCRVVGEEAEERQHA
notes: TgLaforin, Toxoplasma gondii glucan phosphatase, ToxoDB TGME49_205290, 523 amino acids; N-terminal split CBM20 followed by a DSP domain; predicted recombinant monomer 61.5 kDa; also called T. gondii laforin; full-length TgLaforin; source: Sf9 insect cells (baculovirus), purified (Ni-agarose, SEC) to >95% homogeneity
In the case of B1, the “stoichiometry N” value is reported as 2.

Source: PMC9254107, “The Toxoplasma glucan phosphatase TgLaforin utilizes a distinct functional mechanism that can be exploited by therapeutic inhibitors” (The Journal of Biological Chemistry, 2022)
